Measurements from publication PMC9035363 (Cell Reports, 2022).
Read-outs that look alike come from different tables or passages of the source.

B1: LY-CoV1404 (bebtelovimab), full-length human IgG1 mAb (antibody, V domains shown)
VH: QITLKESGPTLVKPTQTLTLTCTFSGFSLSISGVGVGWLRQPPGKALEWLALIYWDDDKRYSPSLKSRLTISKDTSKNQVVLKMTNIDPVDTATYYCAHHSISTIFDHWGQGTLVTVSS
VL: QSALTQPASVSGSPGQSITISCTATSSDVGDYNYVSWYQQHPGKAPKLMIFEVSDRPSGISNRFSGSKSGNTASLTISGLQAEDEADYYCSSYTTSSAVFGGGTKLTVL
B2: LY-CoV1404 Fab (papain digestion) (Fab, V domains shown)
VH: B1 VH
VL: B1 VL

Columns and labels:
[1] = molecular target: SARS-CoV-2 RBD (monomeric) (SARS-CoV-2, Wuhan reference …, UniProt P0DTC2); experiment: SPR
[2] = molecular target: T1, SARS-CoV-2 S protein, wild type, on CHO cells (SARS-CoV-2, Wuhan (GenBank MN908947.3), UniProt P0DTC2); experiment: cell-based or functional assay
[3] = molecular target: T1, SARS-CoV-2 S protein, wild type, on CHO …; experiment: cell-based or functional assay; remark: listed apart in the source
[4] = molecular target: T2, RBD-Fc, reference sequence (SARS-CoV-2, Wuhan reference …, UniProt P0DTC2); experiment: SPR
[5] = molecular target: T2, RBD-Fc, reference sequence; experiment: SPR; remark: listed apart in the source

| Binder | Kd [1] | authentic SARS-CoV-2/MT020880.1 neutralisation, IFA, IC50 (S-ACE2) [2] | PRNT, Italy-INMI1 isolate, combination study, LY-CoV1404 alone, IC50 [3] | PRNT, authentic Italy-INMI1 isolate, IC50 [3] | PRNT, authentic WA isolate, IC50 [3] | Kd [4] | Kd [5] |
| --- | --- | --- | --- | --- | --- | --- | --- |
| B1 | 1.58 nM | 0.009 to 0.0221 mg/L | 0.015 mg/L | 0.01 mg/L | 0.002 mg/L |  |  |
| B2 |  |  |  |  |  | 4.01 nM | 3.71 nM |
